Source: patent publication US20110263454A1, “Methods of Identifying Functional Characteristics of Promoters, Transcription Modifying Proteins and Transcription Modulating Agents” (Salk Institute for Biological Studies, priority 2008, published 2011)

B1: GCNF: Germ Cell Nuclear Factor (NR6A1, GCNF1), cDNA driver (protein, UniProt Q15406 1-480, looked up)
Nuclear receptor subfamily 6 …: MERDEPPPSGGGGGGGSAGFLEPPAALPPPPRNGFCQDELAELDPGTISVSDDRAEQRTCLICGDRATGLHYGIISCEGCKGFFKRSICNKRVYRCSRDKNCVMSRKQRNRCQYCRLLKCLQMGMNRKAIREDGMPGGRNKSIGPVQISEEEIERIMSGQEFEEEANHWSNHGDSDHSSPGNRASESNQPSPGSTLSSSRSVELNGFMAFREQYMGMSVPPHYQYIPHLFSYSGHSPLLPQQARSLDPQSYSLIHQLLSAEDLEPLGTPMLIEDGYAVTQAELFALLCRLADELLFRQIAWIKKLPFFCELSIKDYTCLLSSTWQELILLSSLTVYSKQIFGELADVTAKYSPSDEELHRFSDEGMEVIERLIYLYHKFHQLKVSNEEYACMKAINFLNQDIRGLTSASQLEQLNKRYWYICQDFTEYKYTHQPNRFPDLMMCLPEIRYIAGKMVNVPLEQLPLLFKVVLHSCKTSVGKE
B2: NR4a2: NR4a2 (NR4A2; NURR1), nuclear hormone receptor cDNA driver (protein, UniProt P43354 1-598, looked up)
Nuclear receptor subfamily 4 …: MPCVQAQYGSSPQGASPASQSYSYHSSGEYSSDFLTPEFVKFSMDLTNTEITATTSLPSFSTFMDNYSTGYDVKPPCLYQMPLSGQQSSIKVEDIQMHNYQQHSHLPPQSEEMMPHSGSVYYKPSSPPTPTTPGFQVQHSPMWDDPGSLHNFHQNYVATTHMIEQRKTPVSRLSLFSFKQSPPGTPVSSCQMRFDGPLHVPMNPEPAGSHHVVDGQTFAVPNPIRKPASMGFPGLQIGHASQLLDTQVPSPPSRGSPSNEGLCAVCGDNAACQHYGVRTCEGCKGFFKRTVQKNAKYVCLANKNCPVDKRRRNRCQYCRFQKCLAVGMVKEVVRTDSLKGRRGRLPSKPKSPQEPSPPSPPVSLISALVRAHVDSNPAMTSLDYSRFQANPDYQMSGDDTQHIQQFYDLLTGSMEIIRGWAEKIPGFADLPKADQDLLFESAFLELFVLRLAYRSNPVEGKLIFCNGVVLHRLQCVRGFGEWIDSIVEFSSNLQNMNIDISAFSCIAALAMVTERHGLKEPKRVEELQNKIVNCLKDHVTFNNGGLNRPNYLSKLLGKLPELRTLCTQGLQRIFYLKLEDLVPPPAIIDKLFLDTLPF
B3: NR4a3: NR4a3 (NR4A3; NOR1), nuclear hormone receptor cDNA driver (protein, UniProt Q92570 1-626, looked up)
Nuclear receptor subfamily 4 …: MPCVQAQYSPSPPGSSYAAQTYSSEYTTEIMNPDYTKLTMDLGSTEITATATTSLPSISTFVEGYSSNYELKPSCVYQMQRPLIKVEEGRAPSYHHHHHHHHHHHHHHQQQHQQPSIPPASSPEDEVLPSTSMYFKQSPPSTPTTPAFPPQAGALWDEALPSAPGCIAPGPLLDPPMKAVPTVAGARFPLFHFKPSPPHPPAPSPAGGHHLGYDPTAAAALSLPLGAAAAAGSQAAALESHPYGLPLAKRAAPLAFPPLGLTPSPTASSLLGESPSLPSPPSRSSSSGEGTCAVCGDNAACQHYGVRTCEGCKGFFKRTVQKNAKYVCLANKNCPVDKRRRNRCQYCRFQKCLSVGMVKEVVRTDSLKGRRGRLPSKPKSPLQQEPSQPSPPSPPICMMNALVRALTDSTPRDLDYSRYCPTDQAAAGTDAEHVQQFYNLLTASIDVSRSWAEKIPGFTDLPKEDQTLLIESAFLELFVLRLSIRSNTAEDKFVFCNGLVLHRLQCLRGFGEWLDSIKDFSLNLQSLNLDIQALACLSALSMITERHGLKEPKRVEELCNKITSSLKDHQSKGQALEPTESKVLGALVELRKICTLGLQRIFYLKLEDLVSPPSIIDKLFLDTLPF
B4: PR: Progesterone Receptor (NR3C3), cDNA driver (protein, UniProt P06401 1-933, looked up)
Progesterone receptor: MTELKAKGPRAPHVAGGPPSPEVGSPLLCRPAAGPFPGSQTSDTLPEVSAIPISLDGLLFPRPCQGQDPSDEKTQDQQSLSDVEGAYSRAEATRGAGGSSSSPPEKDSGLLDSVLDTLLAPSGPGQSQPSPPACEVTSSWCLFGPELPEDPPAAPATQRVLSPLMSRSGCKVGDSSGTAAAHKVLPRGLSPARQLLLPASESPHWSGAPVKPSPQAAAVEVEEEDGSESEESAGPLLKGKPRALGGAAAGGGAAAVPPGAAAGGVALVPKEDSRFSAPRVALVEQDAPMAPGRSPLATTVMDFIHVPILPLNHALLAARTRQLLEDESYDGGAGAASAFAPPRSSPCASSTPVAVGDFPDCAYPPDAEPKDDAYPLYSDFQPPALKIKEEEEGAEASARSPRSYLVAGANPAAFPDFPLGPPPPLPPRATPSRPGEAAVTAAPASASVSSASSSGSTLECILYKAEGAPPQQGPFAPPPCKAPGASGCLLPRDGLPSTSASAAAAGAAPALYPALGLNGLPQLGYQAAVLKEGLPQVYPPYLNYLRPDSEASQSPQYSFESLPQKICLICGDEASGCHYGVLTCGSCKVFFKRAMEGQHNYLCAGRNDCIVDKIRRKNCPACRLRKCCQAGMVLGGRKFKKFNKVRVVRALDAVALPQPVGVPNESQALSQRFTFSPGQDIQLIPPLINLLMSIEPDVIYAGHDNTKPDTSSSLLTSLNQLGERQLLSVVKWSKSLPGFRNLHIDDQITLIQYSWMSLMVFGLGWRSYKHVSGQMLYFAPDLILNEQRMKESSFYSLCLTMWQIPQEFVKLQVSQEEFLCMKVLLLLNTIPLEGLRSQTQFEEMRSSYIRELIKAIGLRQKGVVSSSQRFYQLTKLLDNLHDLVKQLHLYCLNTFIQSRALSVEFPEMMSEVIAAQLPKILAGMVKPLLFHKK

Legend:
mPOMC promoter = test: NHR-promoter luciferase screen, mPOMC promoter; type: cell-based, mouse; conditions: for Results of assays of transcription factor (+/- ligand) with mPOMC: Table 6d, luciferase activity relative to control (control = 1.00); for Luc. act., normalized to lacZ / Normalized Luc. act., normalized to control: mPOMC promoter, HR component with or without ligand; for Normalized Luc. act., normalized to control: relative to control
In short: (§1)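 CV-1 cells were co-transfected with 50 ng NHR (homodimer or NHR/RXR heterodimer), 100 ng promoter-luciferase construct and 50 ng LacZ. Luciferase was normalized to LacZ and to a no-NHR/no-ligand control.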

RevErba promoter = test: NHR-promoter luciferase screen, RevErba (RVRa) promoter; type: cell-based; parameters: key to mRevErba promoter reporter activity / Normalized Luc. act., normalized to control: luciferase activity normalized to lacZ and to control (no NHR/ligand); conditions: for Luc. act., normalized to lacZ / Normalized Luc. act., normalized to control / negative reciprocal of normalized Luc. act. (fold repression; Table 33) / normalized Luc. act. on a logarithmic scale (column without head, Table 33): RVRa promoter; for Luc. act., normalized to lacZ / Normalized Luc. act., normalized to control: HR component without or with ligand; for negative reciprocal of normalized Luc. act. (fold repression; Table 33): given only where activity is below control; for normalized Luc. act. on a logarithmic scale (column without head, Table 33): log10 of activity normalized to control; for mRevErba promoter reporter activity: transcription factor +/- ligand, control = 1.00
In short: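 Reporter readout: RevErbα promoter-driven luciferase, corrected for LacZ transfection efficiency and expressed relative to a no-receptor or no-ligand control. Receptors (V5H6-tagged, pcDNA3.1), alone or with RXR, plus any ligand, were expressed in CV-1 cells.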

Bmal1 promoter = test: NHR-promoter luciferase screen, Bmal1 promoter; type: cell-based, mouse; conditions: for Luc. act., normalized to lacZ / Normalized Luc. act., normalized to control: Bmal1 promoter, HR component without or with ligand; for mBmal1 promoter reporter activity: transcription factor +/- ligand, control = 1.00
In short: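 Luciferase activity was measured 48 h after transfection, normalized to LacZ and then to a control lacking NHR or ligand. CV-1 cells carried 100 ng Bmal1 reporter, 50 ng NHR construct and 50 ng LacZ.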

mLeptin promoter = test: NHR-promoter luciferase screen, mLeptin promoter; type: cell-based, mouse; conditions: for Luc. act., normalized to lacZ / Normalized Luc. act., normalized to control: Table 7, mLeptin; for Results of assays of transcription factor (+/- ligand) with mLeptin: Table 6d, luciferase activity relative to control (control = 1.00)
In short: as §1

hMDR1 promoter = test: NHR-promoter luciferase screen, hMDR1 promoter; type: cell-based, human; conditions: for Luc. act., normalized to lacZ / Normalized Luc. act., normalized to control: MDR1 promoter, HR/ligand component; for hMDR1 promoter reporter activity: transcription factor +/- ligand, control = 1.00
In short: as §1

Molecule	Results of assays of transcription factor (+/- ligand) with mPOMC (mPOMC promoter)	Luc. act., normalized to lacZ (mPOMC promoter)	Normalized Luc. act., normalized to control (mPOMC promoter)	Luc. act., normalized to lacZ (RevErba promoter)	Normalized Luc. act., normalized to control (RevErba promoter)	negative reciprocal of normalized Luc. act. (fold repression; Table 33) (RevErba promoter)	normalized Luc. act. on a logarithmic scale (column without head, Table 33) (RevErba promoter)	mRevErba promoter reporter activity (RevErba promoter)	Luc. act., normalized to lacZ (Bmal1 promoter)	Normalized Luc. act., normalized to control (Bmal1 promoter)	mBmal1 promoter reporter activity (Bmal1 promoter)	Luc. act., normalized to lacZ (mLeptin promoter)	Normalized Luc. act., normalized to control (mLeptin promoter)	Results of assays of transcription factor (+/- ligand) with mLeptin (mLeptin promoter)	Luc. act., normalized to lacZ (hMDR1 promoter)	Normalized Luc. act., normalized to control (hMDR1 promoter)	hMDR1 promoter reporter activity (hMDR1 promoter)
B1	0.61	42.0	0.6	25.7	0.9	−1.087	−0.04	0.92	13.7	0.9	0.88	1.5	0.5	0.50	0.3	0.8	0.83
B2	1.05	72.2	1.0	20.6	0.7	−1.357	−0.13	0.74	8.1	0.5	0.52	2.1	0.7	0.71	0.2	0.7	0.74
B3	0.87	59.7	0.9	14.7	0.5	−1.9	−0.28	0.53	7.5	0.5	0.48	1.8	0.6	0.62	0.2	0.7	0.65
B4	1.10	75.8	1.1	24.1	0.9	−1.16	−0.06	0.86	17.9	1.1	1.14	2.2	0.8	0.76	0.4	1.3	1.35
